In PMC3877758 (2013) one finds IC50, Kd and K1/2 of mutant eIF2B for [3H]GDP release from eIF2 prebound to eIF5 (coupled GDI–GDF–GEF assay; pair displaced: eIF2 and eIF5) data, which are given here for nine molecules.

In assay [1] the target is eIF2 (yeast (Saccharomyces cerevisiae)) (UniProt P20459). The assay can be described thus: pull-down; GDF assay (competition): 1 µg eIF2 or eIF2αP and 1 µg GST-eIF5 bound to glutathione sepharose beads 2 h at 4°C, washed, then challenged 2 h at 4°C with increasing concentrations of Flag-eIF2B complexes, subunits or eIF5-Flag; 30 mM HEPES, 100 mM KCl, 100 µM GDP, 5 mM DTT, 1 mM NaF, 2.5 mM MgCl2, 0.05% Triton X-100; bound eIF2 by immunoblot; fit y = 1 − [x/(x + IC50)].

In a further assay the target is Rab9 (UniProt P51151). The settings on record: cited from earlier work.
Assay [2] has as its target eIF5 (Saccharomyces cerevisiae) (UniProt P38431). As to conditions: cited from earlier work.
The target of assay [3] is eIF2 (yeast (Saccharomyces cerevisiae)) (UniProt P20459).
For assay [4] the target is unchanged. Kind of assay: other; displacement of eIF2 from GST-eIF5 (GDF assay). The settings on record: complex; chains chain;chain;chain;chain.
In the next assay the target is T1, eIF2 (yeast (Saccharomyces cerevisiae), UniProt P20459 1-304; P09064 1-285; P32481 1-527).
T1 chain 1: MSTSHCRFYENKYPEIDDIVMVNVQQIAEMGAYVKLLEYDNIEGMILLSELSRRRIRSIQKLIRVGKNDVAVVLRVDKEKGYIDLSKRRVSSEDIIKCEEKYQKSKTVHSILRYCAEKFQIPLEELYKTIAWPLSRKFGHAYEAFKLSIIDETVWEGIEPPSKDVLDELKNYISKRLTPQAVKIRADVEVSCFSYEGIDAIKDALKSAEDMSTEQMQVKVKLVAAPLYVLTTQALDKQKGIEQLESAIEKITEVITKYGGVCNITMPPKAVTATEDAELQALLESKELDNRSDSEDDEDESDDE
T1 chain 2: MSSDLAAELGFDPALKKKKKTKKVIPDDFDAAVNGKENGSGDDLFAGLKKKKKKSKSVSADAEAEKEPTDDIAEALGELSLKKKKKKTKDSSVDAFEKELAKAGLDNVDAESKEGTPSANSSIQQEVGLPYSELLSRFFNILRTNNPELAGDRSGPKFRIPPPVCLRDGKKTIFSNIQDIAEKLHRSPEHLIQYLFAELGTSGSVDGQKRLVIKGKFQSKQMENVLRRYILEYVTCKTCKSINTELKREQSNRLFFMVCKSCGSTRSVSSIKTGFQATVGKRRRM
T1 chain 3: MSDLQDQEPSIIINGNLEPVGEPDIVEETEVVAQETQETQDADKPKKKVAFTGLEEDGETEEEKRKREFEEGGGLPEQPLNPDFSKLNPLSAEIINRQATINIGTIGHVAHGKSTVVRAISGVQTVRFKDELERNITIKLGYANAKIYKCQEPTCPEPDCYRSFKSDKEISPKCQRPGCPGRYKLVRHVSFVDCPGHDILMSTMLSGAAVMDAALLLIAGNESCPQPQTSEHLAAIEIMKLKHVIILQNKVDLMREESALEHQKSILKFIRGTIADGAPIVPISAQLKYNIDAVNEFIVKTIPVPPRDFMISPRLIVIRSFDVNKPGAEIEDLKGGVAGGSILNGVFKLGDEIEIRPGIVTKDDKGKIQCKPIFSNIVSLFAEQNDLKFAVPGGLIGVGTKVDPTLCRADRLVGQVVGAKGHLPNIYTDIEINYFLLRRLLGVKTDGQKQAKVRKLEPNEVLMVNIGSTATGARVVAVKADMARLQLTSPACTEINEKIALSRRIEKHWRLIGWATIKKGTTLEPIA
The assay can be described thus: displacement of eIF2 from GST-eIF5 (GDF assay).

Assay [5] addresses eIF2 (yeast (Saccharomyces cerevisiae)) (UniProt P20459). Kind of assay: pull-down; GDF assay (competition): 1 µg eIF2 or eIF2αP and 1 µg GST-eIF5 bound to glutathione sepharose beads 2 h at 4°C, washed, then challenged 2 h at 4°C with increasing concentrations of Flag-eIF2B complexes, subunits or eIF5-Flag; 30 mM HEPES, 100 mM KCl, 100 µM GDP, 5 mM DTT, 1 mM NaF, 2.5 mM MgCl2, 0.05% Triton X-100; bound eIF2 by immunoblot; fit y = 1 − [x/(x + IC50)]. This is another data set of the same source.

Bounds are passed on as bounds.

Sequence of Rab9 (P51151 2-201): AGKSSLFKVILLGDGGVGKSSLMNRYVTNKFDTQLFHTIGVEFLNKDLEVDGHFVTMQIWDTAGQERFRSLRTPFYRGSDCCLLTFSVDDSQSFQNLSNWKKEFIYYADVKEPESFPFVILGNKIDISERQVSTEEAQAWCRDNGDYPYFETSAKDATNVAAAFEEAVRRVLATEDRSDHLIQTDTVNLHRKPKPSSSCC
Sequence of eIF5 (Saccharomyces cerevisiae) (P38431 whole entry): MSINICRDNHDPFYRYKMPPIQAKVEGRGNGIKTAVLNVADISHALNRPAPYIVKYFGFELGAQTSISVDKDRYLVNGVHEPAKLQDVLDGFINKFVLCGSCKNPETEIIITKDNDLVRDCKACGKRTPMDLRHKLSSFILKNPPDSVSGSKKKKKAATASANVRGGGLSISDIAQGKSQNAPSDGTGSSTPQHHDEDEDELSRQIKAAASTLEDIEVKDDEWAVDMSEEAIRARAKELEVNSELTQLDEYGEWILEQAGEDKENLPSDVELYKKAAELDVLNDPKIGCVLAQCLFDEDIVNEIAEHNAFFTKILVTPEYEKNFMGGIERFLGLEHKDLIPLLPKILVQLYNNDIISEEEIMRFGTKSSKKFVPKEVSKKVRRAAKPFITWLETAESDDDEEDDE

On to “Flag-tagged eIF5 (eIF5-Flag) (from UniProt P38431 1-405) (natural protein)”, for which the 50% inhibitory concentration (IC50) in assay [1] turned out to be 244 nM.

Consider GDIα (from UniProt P21856), for which the dissociation constant (Kd) with Rab9 was less than 23 nM. For the molecule eIF2 (from UniProt P20459), the Kd in assay [2] is 23 nM. Consider “eIF2B-γG12V (mutant eIF2B complex) (from UniProt P14741 1-305; P32502 1-381; P09032 1-578; P12754 1-651; P32501 1-712)”, for which the K1/2 of mutant eIF2B for [3H]GDP release from eIF2 prebound to eIF5 (coupled GDI–GDF–GEF assay; pair displaced: eIF2 and eIF5) in assay [3] was found to be 134 nM.

In the case of “eIF2B-γL480Q (mutant eIF2B complex) (from UniProt P14741 1-305; P32502 1-381; P09032 1-578; P12754 1-651; P32501 1-712)”, in assay [3], the K1/2 of mutant eIF2B for [3H]GDP release from eIF2 prebound to eIF5 (coupled GDI–GDF–GEF assay; pair displaced: eIF2 and eIF5) worked out at 134 nM. With “four-subunit eIF2B complex lacking the α subunit (eIF2Bβδγɛ), P32502 1-381; P12754 1-651; P09032 1-578; P32501 1-712”, in assay [4], the IC50 worked out at 25.7 nM.

B1: eIF2Bγ subunit alone (natural protein)
chain: MSIQAFVFCGKGSNLAPFTQPDFPFQTQNKDSTAATSGDKLNELVNSALDSTVINEFMQHSTRLPKALLPIGNRPMIEYVLDWCDQADFKEISVVAPVDEIELIESGLTSFLSLRKQQFELIYKALSNSNHSHHLQDPKKINFIPSKANSTGESLQKELLPRINGDFVILPCDFVTDIPPQVLVDQFRNRDDNNLAMTIYYKNSLDSSIDKKQQQKQKQQQFFTVYSENEDSERQPILLDVYSQRDVTKTKYLQIRSHLLWNYPNLTVSTKLLNSFIYFCSFELCQLLKLGPQSMSRQASFKDPFTGNQQQQNPPTTDDDEDRNHDDDDDYKPSATSIQPTYFKKKNDLILDPINCNKSLSKVFRDLSRRSWQHSKPREPIGIFILPNETLFIRANNLNAYMDANRFVLKIKSQTMFTKNIQIQSAAIGADAIVDPKCQISAHSNVKMSVLGTQANIGSRCRVAGSLLFPGVHLGDEVILENCIIGPMAKIGSKCKLSNCYIEGHYVVEPKNNFKGETLANVYLDEDEEDELIYDDSVIAGESEIAEETDSDDRSDEDSDDSEYTDEYEYEDDGLFER
B1 yielded a half-inhibitory concentration (IC50) with eIF2 of 318 nM.

B2: eIF2Bɛ subunit alone (natural protein)
chain: MAGKKGQKKSGLGNHGKNSDMDVEDRLQAVVLTDSYETRFMPLTAVKPRCLLPLANVPLIEYTLEFLAKAGVHEVFLICSSHANQINDYIENSKWNLPWSPFKITTIMSPEARCTGDVMRDLDNRGIITGDFILVSGDVLTNIDFSKMLEFHKKMHLQDKDHISTMCLSKASTYPKTRTIEPAAFVLDKSTSRCIYYQDLPLPSSREKTSIQIDPELLDNVDEFVIRNDLIDCRIDICTSHVPLIFQENFDYQSLRTDFVKGVISSDILGKHIYAYLTDEYAVRVESWQTYDTISQDFLGRWCYPLVLDSNIQDDQTYSYESRHIYKEKDVVLAQSCKIGKCTAIGSGTKIGEGTKIENSVIGRNCQIGENIRIKNSFIWDDCIIGNNSIIDHSLIASNATLGSNVRLNDGCIIGFNVKIDDNMDLDRNTKISASPLKNAGSRMYDNESNEQFDQDLDDQTLAVSIVGDKGVGYIYESEVSDDEDSSTEACKEINTLSNQLDELYLSDDSISSATKKTKKRRTMSVNSIYTDREEIDSEFEDEDFEKEGIATVERAMENNHDLDTALLELNTLRMSMNVTYHEVRIATITALLRRVYHFIATQTLGPKDAVVKVFNQWGLLFKRQAFDEEEYIDLMNIIMEKIVEQSFDKPDLILFSALVSLYDNDIIEEDVIYKWWDNVSTDPRYDEVKKLTVKWVEWLQNADEESSSEEE
Regarding B2, the 50% inhibitory concentration (IC50) in assay [5] was 215 nM.

B3: eIF2Bγɛ subcomplex (catalytic subcomplex of eIF2B) (complex)
chain 1: MSIQAFVFCGKGSNLAPFTQPDFPFQTQNKDSTAATSGDKLNELVNSALDSTVINEFMQHSTRLPKALLPIGNRPMIEYVLDWCDQADFKEISVVAPVDEIELIESGLTSFLSLRKQQFELIYKALSNSNHSHHLQDPKKINFIPSKANSTGESLQKELLPRINGDFVILPCDFVTDIPPQVLVDQFRNRDDNNLAMTIYYKNSLDSSIDKKQQQKQKQQQFFTVYSENEDSERQPILLDVYSQRDVTKTKYLQIRSHLLWNYPNLTVSTKLLNSFIYFCSFELCQLLKLGPQSMSRQASFKDPFTGNQQQQNPPTTDDDEDRNHDDDDDYKPSATSIQPTYFKKKNDLILDPINCNKSLSKVFRDLSRRSWQHSKPREPIGIFILPNETLFIRANNLNAYMDANRFVLKIKSQTMFTKNIQIQSAAIGADAIVDPKCQISAHSNVKMSVLGTQANIGSRCRVAGSLLFPGVHLGDEVILENCIIGPMAKIGSKCKLSNCYIEGHYVVEPKNNFKGETLANVYLDEDEEDELIYDDSVIAGESEIAEETDSDDRSDEDSDDSEYTDEYEYEDDGLFER
chain 2: MAGKKGQKKSGLGNHGKNSDMDVEDRLQAVVLTDSYETRFMPLTAVKPRCLLPLANVPLIEYTLEFLAKAGVHEVFLICSSHANQINDYIENSKWNLPWSPFKITTIMSPEARCTGDVMRDLDNRGIITGDFILVSGDVLTNIDFSKMLEFHKKMHLQDKDHISTMCLSKASTYPKTRTIEPAAFVLDKSTSRCIYYQDLPLPSSREKTSIQIDPELLDNVDEFVIRNDLIDCRIDICTSHVPLIFQENFDYQSLRTDFVKGVISSDILGKHIYAYLTDEYAVRVESWQTYDTISQDFLGRWCYPLVLDSNIQDDQTYSYESRHIYKEKDVVLAQSCKIGKCTAIGSGTKIGEGTKIENSVIGRNCQIGENIRIKNSFIWDDCIIGNNSIIDHSLIASNATLGSNVRLNDGCIIGFNVKIDDNMDLDRNTKISASPLKNAGSRMYDNESNEQFDQDLDDQTLAVSIVGDKGVGYIYESEVSDDEDSSTEACKEINTLSNQLDELYLSDDSISSATKKTKKRRTMSVNSIYTDREEIDSEFEDEDFEKEGIATVERAMENNHDLDTALLELNTLRMSMNVTYHEVRIATITALLRRVYHFIATQTLGPKDAVVKVFNQWGLLFKRQAFDEEEYIDLMNIIMEKIVEQSFDKPDLILFSALVSLYDNDIIEEDVIYKWWDNVSTDPRYDEVKKLTVKWVEWLQNADEESSSEEE
For the molecule B3, the IC50 in the assay with eIF2 came out at 20 nM.
